# Source: PMC10208975, “TCF7L2 acts as a molecular switch in midbrain to control mammal vocalization through its DNA binding domain but not transcription activation domain”
# B1: HMG-binding sequence probe (dsDNA)
# DNA 1: TAGACGTAGGGCACCCTTTGAAGCTCTCCCTCGA
# DNA 2: TCGAGGGAGAGCTTCAAAGGGTGCCCTACGTCTA
# Tests used:
# Conditions in all cases: protein: recombinant; tags: MBP (pMAL-cRI); only one strand given
# [1] = target: TCF7L2 HMG box Y337S (MBP fusion) (UniProt Q924A0 327-395, Y337S); assay: EMSA; 50 mM NaCl, 20 mM Tris-HCl (pH not stated), 1 mM DTT, 1 mM MgCl2, 5% glycerol, 1 h at 25 C; 6% native PAGE
# TCF7L2 HMG box Y337S (MBP fusion), sequence (Q924A0 327-395 Y337S): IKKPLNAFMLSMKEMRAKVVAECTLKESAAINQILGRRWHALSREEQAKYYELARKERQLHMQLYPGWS
# [2] = target: TCF7L2 HMG box Y337E (MBP fusion) (UniProt Q924A0 327-395, Y337E); assay: as above
# TCF7L2 HMG box Y337E (MBP fusion), sequence (Q924A0 327-395 Y337E): as the sequence (Q924A0 327-395 Y337S) above, with S11E counted along it
# [3] = target: TCF7L2 HMG box Y337H (MBP fusion) (UniProt Q924A0 327-395, Y337H); assay: as above
# TCF7L2 HMG box Y337H (MBP fusion), sequence (Q924A0 327-395 Y337H): as the sequence (Q924A0 327-395 Y337S) above, with S11H counted along it
# [4] = target: TCF7L2 HMG box Y337F (MBP fusion) (UniProt Q924A0 327-395, Y337F); assay: EMSA; binding largely retained; 50 mM NaCl, 20 mM Tris-HCl (pH not stated), 1 mM DTT, 1 mM MgCl2, 5% glycerol, 1 h at 25 C; 6% native PAGE
# TCF7L2 HMG box Y337F (MBP fusion), sequence (Q924A0 327-395 Y337F): as the sequence (Q924A0 327-395 Y337S) above, with S11F counted along it
# [5] = target: TCF7L2 HMG box WT (MBP fusion) (UniProt Q924A0 327-395); assay: EMSA; dose-dependent; 50 mM NaCl, 20 mM Tris-HCl (pH not stated), 1 mM DTT, 1 mM MgCl2, 5% glycerol, 1 h at 25 C; 6% native PAGE
# TCF7L2 HMG box WT (MBP fusion), sequence (Q924A0 327-395): as the sequence (Q924A0 327-395 Y337S) above, with S11Y counted along it
binder,measurement,setting,value
B1,binding result,[1],no binding
same,binding result,[2],no binding
same,binding result,[3],no binding
same,binding result,[4],binds
same,binding result,[5],binds
